Changes are numbered by the printed parent chain. Values belong to the binder of their own block, whether it stands above or below them.
Assays:
biotinylated APRIL [1] = target: T1, biotinylated APRIL (Homo sapiens (Human), UniProt O75888 105-250, biotinylated using NHS-biotin at a molar ratio of 20:1 biotin:APRIL); test: scFv inhibition of bio-APRIL (5 ng/ml) binding to coated BCMA fusion protein, streptavidin-DELFIA
T1 construct: also called bio-APRIL
T1 sequence: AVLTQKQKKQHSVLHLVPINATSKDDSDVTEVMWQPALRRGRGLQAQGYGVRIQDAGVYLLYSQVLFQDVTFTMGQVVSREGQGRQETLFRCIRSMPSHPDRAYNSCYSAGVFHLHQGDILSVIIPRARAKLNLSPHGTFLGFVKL
Method: (§1) APRIL binds to BCMA with higher affinity than its binds to TACI so, inhibition of biotinylated APRIL (bio-APRIL) binding to BCMA can be used to screen selection outputs as periplasmic extracts for neutralizers and then assess potency of the positives as purified scFvs. To perform this assay, each well of a black 96 well flat-bottomed plate (Costar) was coated with 1.25 ng BCMA fusion protein overnight at 4° C. The wells were blocked with 3% milk in PBS for an hour at room temperature. ScFv were then added in the presence of 5 ng/ml biotinylated APRIL for 90 minutes at room temperature. Binding of biotinylated APRIL was detected via streptavidin Delfia (Wallac) added at a 1:1000 dilution in Delfia assay buffer (Wallac). After an hour at room temperature this was read on a Wallac 1420 workstation at 620 nm.

biotinylated APRIL [2] = target: T1, biotinylated APRIL; test: scFv inhibition of bio-APRIL (50 ng/ml) binding to coated TACI fusion protein, streptavidin-DELFIA; partial inhibition
Method: as §1
(§2) An assay similar to that described above can also be used to test if anti-APRIL antibodies of the invention are able to inhibit binding of bio-APRIL to TACI. In this case, the plate was coated with 2.5 ng TACI fusion protein per well and scFv were added in the presence of 50 ng/ml biotinylated APRIL instead of 5 ng/ml. Otherwise, the method was identical to that for the BCMA:bio-APRIL assay.

BCMA = target: T2, BCMA (Homo sapiens (Human), UniProt Q02223 1-48, limits assumed); test: Specificity phage ELISA (scFv on phage, anti-M13-HRP, A450)
T2 chain: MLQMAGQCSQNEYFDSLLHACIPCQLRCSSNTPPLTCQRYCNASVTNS
Method: (§3) Flexible 96-well plates (Falcon) were coated overnight at 4° C. with each antigen (1 μg/ml). All antigens were coated in PBS. After coating, the solutions were removed from the wells, and the plates were blocked for 1 hour at room temperature in MPBS. The plates were washed 3 times with PBS and then 50 μl of pre-blocked phage was added to each well. The plates were incubated at room temperature for 1 hour and then washed with 3 changes of PBST followed by 3 changes of PBS.
(§4) To each well, 50 μl of an anti-M13-HRP conjugate (Pharmacia) at a 1 in 5000 dilution in MPBS was added and the plates incubated at room temperature for 1 hour. Each plate was washed three times with PBST followed by three times with PBS.
(§5) Fifty μl of TMB substrate was then added to each well, and incubated at room temperature for 30 minutes or until color development. The reaction was stopped by the addition of 25 μl of 0.5 M H₂SO₄. The signal generated was measured by reading the absorbance at 450 nm (A₄₅₀) using a microtitre plate reader (Bio-Rad 3550).

TACI = target: T3, TACI (Homo sapiens (Human), UniProt O14836 1-154, limits assumed); test: as above
T3 sequence: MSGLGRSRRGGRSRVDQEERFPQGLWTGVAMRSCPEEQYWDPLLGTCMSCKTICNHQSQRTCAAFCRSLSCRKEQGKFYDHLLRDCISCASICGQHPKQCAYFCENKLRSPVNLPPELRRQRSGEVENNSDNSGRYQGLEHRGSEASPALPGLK
Method: as §3, §4, §5

BLyS = target: T4, BLyS (Homo sapiens (Human), UniProt Q9Y275 134-285); test: as above
T4 construct: also called Neutrokine-alpha
Method: as §3, §4, §5

LIGHT = target: T5, LIGHT (Homo sapiens (Human), UniProt O43557 83-240, limits assumed); test: as above
T5 chain: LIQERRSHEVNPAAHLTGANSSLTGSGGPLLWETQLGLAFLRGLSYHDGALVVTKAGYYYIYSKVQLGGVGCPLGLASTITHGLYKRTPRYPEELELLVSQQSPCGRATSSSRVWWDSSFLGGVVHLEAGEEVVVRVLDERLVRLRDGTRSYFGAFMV
Method: as §3, §4, §5

TNF-α = target: T6, TNF-α (Homo sapiens (Human), UniProt P01375 77-233); test: as above
T6 construct: also called TNF-alpha
T6 sequence (P01375 77-233 limits assumed): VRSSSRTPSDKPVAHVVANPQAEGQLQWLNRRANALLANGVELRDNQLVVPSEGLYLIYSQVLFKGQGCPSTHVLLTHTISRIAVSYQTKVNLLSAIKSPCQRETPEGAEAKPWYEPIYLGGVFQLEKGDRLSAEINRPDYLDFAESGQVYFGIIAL
Method: as §3, §4, §5

BSA = target: T7, BSA (UniProt P02769 25-607); test: as above
T7 construct: Unrelated control antigen coated at 1 µg/ml in the phage ELISAs
T7 sequence (P02769 25-607 limits assumed): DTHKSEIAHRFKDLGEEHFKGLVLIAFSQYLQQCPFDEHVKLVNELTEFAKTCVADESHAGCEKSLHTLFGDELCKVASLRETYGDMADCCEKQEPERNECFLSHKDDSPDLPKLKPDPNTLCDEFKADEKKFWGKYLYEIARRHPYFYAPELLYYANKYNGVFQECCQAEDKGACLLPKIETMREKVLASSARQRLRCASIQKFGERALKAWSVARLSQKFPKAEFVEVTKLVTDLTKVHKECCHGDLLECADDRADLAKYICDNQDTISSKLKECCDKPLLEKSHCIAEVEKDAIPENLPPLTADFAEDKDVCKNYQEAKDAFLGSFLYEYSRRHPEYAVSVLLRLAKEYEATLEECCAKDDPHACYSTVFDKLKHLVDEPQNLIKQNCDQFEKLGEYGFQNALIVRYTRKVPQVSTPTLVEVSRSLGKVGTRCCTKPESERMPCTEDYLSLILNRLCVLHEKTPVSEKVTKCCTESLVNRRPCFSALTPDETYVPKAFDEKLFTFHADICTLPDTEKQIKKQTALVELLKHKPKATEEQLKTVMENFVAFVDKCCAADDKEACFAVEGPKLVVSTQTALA
Method: as §3, §4, §5

biotinylated APRIL [3] = target: T1, biotinylated APRIL; test: scFv inhibition of bio-APRIL (50 ng/ml) binding to coated TACI fusion protein, streptavidin-DELFIA
Method: as §1, §2

biotinylated APRIL [4] = target: T1, biotinylated APRIL; test: scFv inhibition of bio-APRIL (5 ng/ml) binding to coated BCMA fusion protein, streptavidin-DELFIA; partial inhibition
Method: as §1

biotinylated APRIL [5] = target: T1, biotinylated APRIL; test: receptor binding inhibition assay: scFv titrated with bio-APRIL (5 ng/ml); blocked binding of bio-APRIL to plate-coated BCMA fusion protein; streptavidin Delfia, fluorescence counts
Method: as §1

IC50 (biotinylated APRIL [1]): 10 nM
IC50 (biotinylated APRIL [2]): 13 nM
B1: A034H05 (scFv)
scFv: EVQLVQSGAEVKKPGSSVKVSCKVSGGSFPNYAINWVRQAPGQGLEWMGSLVPVFLTPNYAERFQDRVTITADESTSTAYMELRSLRSDDTAVFYCARSGGDGYRDYGMDLWGRGTLVTVSSGGGGSGGGGSGGGGSAQSVLTQPPSASGTPGQRVTISCSGSSSNIGRNTVNWFQQLPGTAPKLLIYSSNQRPSGVPDRFAGSKSGTSASLAISGLQSEDEADYYCAAWDDSLNGLVFGGGTKLTVLG

IC50 (biotinylated APRIL [1]): 19 nM
IC50 (biotinylated APRIL [3]): 800 nM
B2: A004G02 (scFv)
scFv: QVQLVQSGAEVKKPGSSVKVSCKASGGTFSSYGIRWVRQAPGQGLEWMGGIIPIFGTANYAQKFQGRVTITADEYTSTAYMELSSLRSEDTAVYYCARSNPQYDAFDIWGQGTTVTVSSGGGGSGGGGSGGGGSSYVLTQPPSVSGTPGQRVTVSCSGGRSNIGSNTVKWYQQLPGTAPKLLIYGNDQRPSGVPDRFSGSKSGNTASLTVSGLQVEDEADYYCQSYDSSLRGSVFGGGTKLTVLG
binding result (BCMA): no binding (tested: antigen coated at 1 µg/ml)
binding result (TACI): no binding (tested: antigen coated at 1 µg/ml)
binding result (BLyS): no binding (tested: antigen coated at 1 µg/ml)
binding result (LIGHT): no binding (tested: antigen coated at 1 µg/ml)
binding result (TNF-α): no binding (tested: antigen coated at 1 µg/ml)
binding result (BSA): no binding (tested: antigen coated at 1 µg/ml)

IC50 (biotinylated APRIL [1]): 6 nM
IC50 (biotinylated APRIL [2]): 36 nM
B3: A034G03 (scFv)
scFv: QVQLQQSGAEVKKPGSSVKVSCKASGGTFSNYAISWVRQAPGQGLEWMGGIIPLFDTPNYAQKFQGRVTITADESTSTAYMELSSLRSEDTAVYYCARGNTGPRPFDPWGQGTLVTVSSGGGGSGGGGSGGGGSAQAVLTQPSSVSGAPGQRVTISCSATSPNIGAGDEIHWYQVSPGKAPKLLIYGDIKRPSGVSDRFSGSKSGTTASLAITGLRPEDEADYYCQSYDRTLSGSVVFGGGTKVTVLG

IC50 (biotinylated APRIL [1]): 25 nM
IC50 (biotinylated APRIL [2]): 139 nM
B4: A053H04 (scFv)
scFv: EVQLVQSGAEVKKPGSSVKVSCKASGGTFSNYAISWVRQAPGQGLEWMGGIIPLFDTPNYAQKFQGRVTITADESTSTAYMELSSLRSEDTAVYYCARGNTGPRPFDPWGKGTTVTVSSGGGGSGGGGSGGGGSAQAVLTQPSSVSGAPGQRVTVSCTGSSSNIGAGYEVNWYQQLPGTAPKLLIYGDTNRPSGVPDRFSGSKSGTSASLAITGLQAEDEANYYCQSYDSGPGGPVVFGGGTKLTVLG

IC50 (biotinylated APRIL [1]): 55 nM
IC50 (biotinylated APRIL [2]): 150 nM
B5: A030D09 (scFv)
scFv: QVQLQQSGAEVKKPGSSVKVSCKTSGGAFSHYAIHWVRLAPGQGLEWMGDIIPVYGSTTYAQKFQDRVTISADESTSTAYMELSSLRSEDTAVYYCARSWYYDILTGYWDYYYMDVWGKGTLVTVSSGGGGSGGGGSGGGGSSELTQDPAVSVALGQTVRITCQGDSLRSYYASWYQQKPGQAPVLVIYGKNNRPSGIPDRFSGSSSGNTASLTITGAQAEDEADYYCNSRDSSGNHVVFGGGTKLTVLG

IC50 (biotinylated APRIL [1]): 2.7 nM
IC50 (biotinylated APRIL [2]): 5.6 nM
B6: A027A11 (scFv)
scFv: QVQLQQSGAEVKKPGSSVKVSCKASGGTFSTYAITWVRQAPGQGLEWMGDIIPVFGIPNYAQMFQDRVTITADESTSTAYLELNSLGAEDTAVYYCARGSQAFEIWGKGTTVTVSSGGGGSGGGGSGGGGSQSVLTQPASVSGSPGQSITISCTGTSSDVGGYNYVSWYQQHPGKAPKLMIYEGSKRPSGVSNRFSGSKSGNTASLTISGLQAEDEADYYCSSYTTRSTRVFGGGTKLTVLG

IC50 (biotinylated APRIL [4]): 2.3 nM
IC50 (biotinylated APRIL [2]): 12 nM
IC50 (biotinylated APRIL [5]): 3 nM
B7: A010D09 (scFv)
scFv: QVQLVQSGAEVKKLGSSVKVSCKASGGTFSSYAISWVRQAPGQGLEWMGGIIPIFGTANYAQKFQGRVTITADESTSTAYMELSSLRSEDTAVYYCARDLSRLGMDVWGQGTTVTVSSGGGGSGGGGSGGGGSDIQMTQSPSTLSASIGDRVTITCRASEGIYHWLAWYQQKPGKAPKLLIYKASSLASGAPSRFSGSGSGTDFTLTISSLQPDDFATYYCQQYSNYPLTFGGGTKLEIKR

IC50 (biotinylated APRIL [4]): 3.1 nM
IC50 (biotinylated APRIL [2]): 94 nM
B8: A027B01 (scFv)
scFv: QVQLLQSAAEVKKPGSSVKVSCKTSGGTFRNHAISWVRQAPGQGLEWMGGIIPIFGTANYAQKFQGRVTITADESTSTAYMELSSLRSEDTAVYYCARGISAGMDVWGRGTLVTVSSGGGGSGGGGSGGGGSDIQMTQSPSFLSASIGDRVTITCRASEGIYHWLAWYQQKPGKAPKLLIYKASSLASGAPSRFSGSGSGTDFTLTISSLQPDDFATYYCQQYSNYPLTFGGGTKLEIKR

IC50 (biotinylated APRIL [1]): 7.7 nM
IC50 (biotinylated APRIL [3]): 10 nM
B9: A013B07 (scFv)
scFv: EVQLVQSGAEVKKPGASVKVSCKTSGYTFTDNYMHWVRQAPGQGLEWMGWISPNSSTTLYAQKFRGRVTLTRDTSVSTAYMELSGLDSDDTALYFCARGGRLAGSTVFTPAFEYWGQGTMVTVSSGGGGSGGGGSGGGGSAQSVLTQPPSVSEAPRQRVTISCSGSSSNIGANAVNWYQQLPGKAPKLLIYFDDLLPSGVSDRFSGSKSGTSASLAISGLQSEDEADYYCAAWDDSLNGVVFGGGTKLTVLG

IC50 (biotinylated APRIL [1]): 12 nM
IC50 (biotinylated APRIL [3]): 3.5 nM
B10: A020F03 (scFv)
scFv: B9 scFv with Q117R, S143A, P149S, A172N, N176K, F192Y, V240Y, G244T, L248V

Reference: patent US20030059862A1 (Human Genome Sciences, published 2003)
